Assay [1] deals with T1, B7-H3 on canine osteosarcoma OSCA78 cells (canine).
T1 construct: whole, on cells
Kind of assay: flow cytometry on OSCA78 cells, 80 nM, experiment 2.

Assay [2] concerns the target T1, B7-H3 on canine osteosarcoma OSCA78 …. Kind of assay: flow cytometry on OSCA78 cells, 2000 nM, experiment 1.
Assay [3] shares this target. Kind of assay: flow cytometry on OSCA78 cells, 400 nM, experiment 2.
Assay [4] has the same target. Kind of assay: flow cytometry on OSCA78 cells, 400 nM, experiment 1.
Assay [5] has the same target. The experiment in a line: flow cytometry on OSCA78 cells, 80 nM, experiment 1.
For assay [6] the target is unchanged. The experiment in a line: flow cytometry on OSCA78 cells, 16 nM, experiment 2.
For assay [7], the target named is T2, canine CD16A on dog peripheral blood leukocytes / PBMC (canine, UniProt E2RP87 1-249).
T2 construct: Native protein on primary dog cells of various breeds
T2 sequence: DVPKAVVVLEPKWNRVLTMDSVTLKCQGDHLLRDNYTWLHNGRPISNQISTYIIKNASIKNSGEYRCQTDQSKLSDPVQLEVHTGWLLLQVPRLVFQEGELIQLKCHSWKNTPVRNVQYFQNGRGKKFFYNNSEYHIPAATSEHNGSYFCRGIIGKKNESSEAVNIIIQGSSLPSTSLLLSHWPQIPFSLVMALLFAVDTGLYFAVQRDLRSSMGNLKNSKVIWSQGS
The experiment in a line: flow cytometry, FITC protein at 80 nM, dog PBMC treated with IL-15 for 6 days. Here is the method:
(§1) To test the binding of the anti-CD16 domain, binding was evaluated on canine peripheral blood mononuclear cells (PBMC) that contained canine NK cells, T cells, B cells, and monocytes (Table 2). A single batch of 1615B7H3 TriKE (SEQ ID NO:56) was directly labeled with FITC fluorochrome and tested. The binding of the anti-CD16 fragment alone (anti-CD16-FITC) was tested as a positive control. Binding of an anti-B7H3 fragment alone (antiB7H3-FITC) was tested as a negative control.

The target in assay [8] is T2, canine CD16A on dog peripheral blood …. Kind of assay: flow cytometry, FITC protein at 2000 nM, PBMC of dog Maverick. Here is the method: as §1
Assay [9] has the same target. The experiment in a line: flow cytometry, FITC protein at 400 nM, PBMC of dog Maverick. Here is the method:
as §1

Assay [10] has the same target. The experiment in a line: flow cytometry, FITC protein at 80 nM, PBMC of dog Never. The procedure: as §1
Assay [11] has the same target. Kind of assay: flow cytometry, FITC protein at 80 nM, PBMC of dog Maverick. Here is the method: as §1
Assay [12] shares this target. Kind of assay: flow cytometry, FITC protein at 2000 nM, PBMC of dog Never. Here is the method: as §1
For assay [13] the target is unchanged. The experiment in a line: flow cytometry, FITC protein at 400 nM, dog PBMC treated with IL-15 for 6 days. The procedure: as §1
Assay [14] shares this target. The experiment in a line: flow cytometry, FITC protein at 400 nM, PBMC of dog Never. Here is the method:
as §1

For assay [15] the target is unchanged. Kind of assay: flow cytometry, FITC protein at 2000 nM, dog PBMC treated with IL-15 for 6 days. The procedure: as §1
Assay [16] addresses T3, recombinant intact canine CD64 with an N-terminus HA-tag, expressed on NK-92 cells (canine).
T3 construct: also called NK-92 canine CD64 cells; NK-92 cCD64; not shown: N-terminal HA tag from the pDisplay cassette
T3 chain: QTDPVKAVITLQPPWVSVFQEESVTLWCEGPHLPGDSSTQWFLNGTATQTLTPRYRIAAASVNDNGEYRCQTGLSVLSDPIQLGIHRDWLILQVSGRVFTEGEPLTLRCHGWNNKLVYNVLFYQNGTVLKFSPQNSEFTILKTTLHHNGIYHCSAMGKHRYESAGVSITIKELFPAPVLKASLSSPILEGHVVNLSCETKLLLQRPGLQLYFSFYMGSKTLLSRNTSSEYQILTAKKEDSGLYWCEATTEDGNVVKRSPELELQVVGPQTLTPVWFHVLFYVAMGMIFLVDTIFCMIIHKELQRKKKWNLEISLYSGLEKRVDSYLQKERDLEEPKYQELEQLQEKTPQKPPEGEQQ
The experiment in a line: flow cytometry on NK-92 cCD16A and NK-92 cCD64 cells (FIG. 3A).

For assay [17], the target named is T2, canine CD16A on dog peripheral blood …. Kind of assay: flow cytometry on dog peripheral blood leukocytes (FIG. 4A). From the text:
Flow cytometry was used to examine the expression patterns of CD16A and CD64 by dog peripheral blood leukocytes. The general leukocyte populations of polymorphonuclear cells (PMNs), monocytes, and lymphocytes were identified based on their characteristic forward and side light-scattering and by their expression of well characterized markers, including CD4 (neutrophils and lymphocyte), CD14 (monocytes), and CD5 (T cells) (FIG. 4A). The anti-canine CD16A clone 4A5 stained a subset of monocytes and lymphocytes, and for some dogs it marginally stained PMNs and/or a small subset of cells in this population (FIG. 4A). This staining pattern was consistent for all the anti-canine CD16 mAbs generated, which had distinct complementarity-determining region nucleotide sequences from 4A5. […]
For cell staining, nonspecific antibody binding sites were blocked for 30 min using 25% canine serum and 25% FBS in PBS buffer (without Ca⁺² and Mg⁺²) (Lonza Group AG, Basel, Switzerland) prior to their staining with antibodies. All cell staining was analyzed on a FACSCelesta instruments (BD Biosciences, Franklin Lakes, N.J.), as previously described (Snyder et al., Vet Immunol Immunopathol 231:110162, 2021). Briefly, for controls, fluorescence minus one was used as well as appropriate isotype-matched antibodies. […]

B1: anti-B7H3 antibody fragment alone (VHH)
VHH: QVQLVESGGGLVQPGGSLRLSCAASGFTFSSYWMYWVRQTPGKGLEWVSTINRDGSATWYADSVKGRFTISRDNAKNTGYLQMNSLKPDDTAVYYCVSDPDNYSSDEMVPYWGQGTQVTVSS
modifications: FITC-labelled in the PBMC assay (sites not given)
notes: The kind VHH is inferred from the single variable domain and the label 1615CAMB7H3; also called antiB7H3-FITC; anti-B7H3 fragment
As to B1, the “binding (flow cytometry read-out, unit not given)” value came to 42.1 in assay [1]; 99.8 in assay [2]; 93.7 in assay [3]; 98.8 in [4]; 64 in assay [5]; 2.8 in assay [6].

B2: anti-canine CD16 antibody fragment alone (other)
VL: MEQILLTQSPAIMSASPGEKVTMTCSASSSVGYMHWYQQKPGSSPKPWIYDTSDLASGFPARFSGSRSGTSYSLIISSMEAEDAATYYCHQRSFYPYTFGGGTKLEIK
VH: EVQLQQSGAELVRSGASVKLSCTASGFNIKDYYMHWVKQRPEQGLEWIGWLDPENGDTVYAPKFQGRATMTADTSSNTAYLHLSSLTSEDTAVYYCNALVYSLLGQDYWGQGTTLTVSS
modifications: FITC-labelled in the PBMC assay (sites not given)
notes: also called anti-CD16; anti-CD16-FITC
Consider B2, for which the “binding (flow cytometry read-out, unit not given)” value in [7] amounted to 6.2; in assay [8] it was 43.6; in assay [9], 26.5; in assay [10] it was 3.7; in assay [11], 10.1; in [12], 23.8. Further, the figures for the “binding (flow cytometry read-out, unit not given)” value in assay [13], in [14] and in assay [15] were 15.3, 8.8 and 35.8, respectively.

B3: anti-canine CD16A mAb (clone 4A5) (antibody, IgG1)
VH: EVQLQQSGAELVRSGASVKLSCTASGFNIKDYYMHWVKQRPEQGLEWIGWLDPENGDTVYAPKFQGRATMTADTSSNTAYLHLSSLTSEDTAVYYCNALVYSLLGQDYWGQGTTLTVSSAKTTPPSVYPLAPGSAAQTNSMVTLGCLVKGYFPEPVTVTWNSGSLSSGVHTFPAVLQSDLYTLSSSVTVPSS
VL: QILLTQSPAIMSASPGEKVTMTCSASSSVGYMHWYQQKPGSSPKPWIYDTSDLASGFPARFSGSRSGTSYSLIISSMEAEDAATYYCHQRSFYPYTFGGGTKLEIKRADAAPTVSIFPPSSEQLTSGGASVVCFLNNFYPKDINVKWKIDGSERQNGVLNSWTDQDSKDSTYSMSSTLTLTK
notes: also called anti-CD16A mAb clone 4A5; anti-canine CD16 (clone 4A5)
Take B3: the binding result in assay [16] is recorded as “no binding”; in assay [17], “binds”.

These data come from US20230227561A1 (REGENTS OF THE UNIVERSITY OF MINNESOTA, published 2023).
